Source: article PMC9482650, “Quantitative fragmentomics allow affinity mapping of interactomes” (Nature Communications, 2022)

Target: T1, MPDZ_12, O75970
T1 sequence (O75970 1857-1958, limits assumed, looked up): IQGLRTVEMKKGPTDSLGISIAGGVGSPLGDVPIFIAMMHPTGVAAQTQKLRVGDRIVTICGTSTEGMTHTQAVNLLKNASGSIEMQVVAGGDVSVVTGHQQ
Assay: holdup assay
Set-up: key: below the threshold = too weak to quantify, mostly under pKd 3.1 to 4
Settings: plain residues with an end cap or a label only (N-terminal biotin on a linker: ado-ado)

Binder	pKd
GSSSKEGTSV [RRBP1, Q9P2E9]	below the threshold
VGIERETDVL [EZH1, Q92800]	below the threshold
ADRDHASDQL [CTBP1, Q13363]	below the threshold

Target: Inadl_2, Q8NI35
Assay: holdup assay
Set-up: key: below the threshold = too weak to quantify, mostly under pKd 3.1 to 4
Settings: plain residues with an end cap or a label only (N-terminal biotin on a linker: ado-ado)

Chain of Inadl_2, Q8NI35 (Q8NI35 238-335): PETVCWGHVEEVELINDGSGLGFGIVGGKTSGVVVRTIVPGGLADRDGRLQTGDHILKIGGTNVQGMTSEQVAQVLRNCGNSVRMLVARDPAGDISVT

Binder	pKd
GSSSKEGTSV [RRBP1, Q9P2E9]	below the threshold
VGIERETDVL [EZH1, Q92800]	below the threshold
ADRDHASDQL [CTBP1, Q13363]	below the threshold

Target: TJP1_2, Q07157
Assay: holdup assay
Set-up: key: below the threshold = too weak to quantify, mostly under pKd 3.1 to 4
Settings: plain residues with an end cap or a label only (N-terminal biotin on a linker: ado-ado)

Chain of TJP1_2, Q07157 (Q07157 181-274): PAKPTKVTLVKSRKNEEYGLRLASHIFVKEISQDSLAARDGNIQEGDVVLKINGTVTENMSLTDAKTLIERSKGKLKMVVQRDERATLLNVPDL

Binder	pKd
GSSSKEGTSV [RRBP1, Q9P2E9]	below the threshold
VGIERETDVL [EZH1, Q92800]	below the threshold
ADRDHASDQL [CTBP1, Q13363]	below the threshold

Target: SCRIB_2, Q14160
Assay: holdup assay
Set-up: key: below the threshold = too weak to quantify, mostly under pKd 3.1 to 4
Settings: plain residues with an end cap or a label only (N-terminal biotin on a linker: ado-ado)

Chain of SCRIB_2, Q14160 (Q14160 857-960): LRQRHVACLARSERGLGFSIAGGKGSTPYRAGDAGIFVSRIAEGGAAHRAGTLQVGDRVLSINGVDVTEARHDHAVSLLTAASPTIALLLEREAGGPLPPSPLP

Binder	pKd
GSSSKEGTSV [RRBP1, Q9P2E9]	4.11
VGIERETDVL [EZH1, Q92800]	below the threshold
ADRDHASDQL [CTBP1, Q13363]	below the threshold

Target: GRASP, Q7Z6J2
Assay: holdup assay
Set-up: key: below the threshold = too weak to quantify, mostly under pKd 3.1 to 4
Settings: plain residues with an end cap or a label only (N-terminal biotin on a linker: ado-ado)

Chain of GRASP, Q7Z6J2 (Q7Z6J2 96-193): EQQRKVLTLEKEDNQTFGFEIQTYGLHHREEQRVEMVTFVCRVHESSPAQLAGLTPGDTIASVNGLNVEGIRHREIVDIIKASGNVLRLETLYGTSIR

Binder	pKd
GSSSKEGTSV [RRBP1, Q9P2E9]	3.49
VGIERETDVL [EZH1, Q92800]	4.36
ADRDHASDQL [CTBP1, Q13363]	below the threshold

Target: T2, MPP6, Q9NZW5
T2 sequence (Q9NZW5 125-219, limits assumed, looked up): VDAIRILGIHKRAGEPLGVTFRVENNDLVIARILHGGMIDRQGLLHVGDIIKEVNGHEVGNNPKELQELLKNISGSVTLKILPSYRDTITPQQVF
Assay: holdup assay
Set-up: key: below the threshold = too weak to quantify, mostly under pKd 3.1 to 4
Settings: plain residues with an end cap or a label only (N-terminal biotin on a linker: ado-ado)

Binder	pKd
GSSSKEGTSV [RRBP1, Q9P2E9]	3.77
VGIERETDVL [EZH1, Q92800]	below the threshold
ADRDHASDQL [CTBP1, Q13363]	below the threshold

Target: GRID2IP_2, A4D2P6
Assay: holdup assay
Set-up: key: below the threshold = too weak to quantify, mostly under pKd 3.1 to 4
Settings: plain residues with an end cap or a label only (N-terminal biotin on a linker: ado-ado)

Chain of GRID2IP_2, A4D2P6 (A4D2P6 272-370): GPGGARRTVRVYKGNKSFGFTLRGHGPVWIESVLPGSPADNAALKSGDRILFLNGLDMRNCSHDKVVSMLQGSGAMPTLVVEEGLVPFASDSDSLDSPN

Binder	pKd
GSSSKEGTSV [RRBP1, Q9P2E9]	3.76
VGIERETDVL [EZH1, Q92800]	below the threshold
ADRDHASDQL [CTBP1, Q13363]	below the threshold

Target: T3, DLG3_3, Q92796
T3 sequence (Q92796 374-475, limits assumed, looked up): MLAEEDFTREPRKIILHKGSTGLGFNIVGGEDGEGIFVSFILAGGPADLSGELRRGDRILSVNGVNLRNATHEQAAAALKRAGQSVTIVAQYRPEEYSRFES
Assay: holdup assay
Set-up: key: below the threshold = too weak to quantify, mostly under pKd 3.1 to 4
Settings: plain residues with an end cap or a label only (N-terminal biotin on a linker: ado-ado)

Binder	pKd
GSSSKEGTSV [RRBP1, Q9P2E9]	3.71
VGIERETDVL [EZH1, Q92800]	below the threshold
ADRDHASDQL [CTBP1, Q13363]	below the threshold

Target: GRIP2_4, Q9C0E4
Assay: holdup assay
Set-up: key: below the threshold = too weak to quantify, mostly under pKd 3.1 to 4
Settings: plain residues with an end cap or a label only (N-terminal biotin on a linker: ado-ado)

Chain of GRIP2_4, Q9C0E4 (Q9C0E4 446-548): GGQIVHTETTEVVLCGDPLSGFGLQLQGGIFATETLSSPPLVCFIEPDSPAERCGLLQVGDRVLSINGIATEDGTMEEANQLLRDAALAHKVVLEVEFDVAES

Binder	pKd
GSSSKEGTSV [RRBP1, Q9P2E9]	below the threshold
VGIERETDVL [EZH1, Q92800]	below the threshold
ADRDHASDQL [CTBP1, Q13363]	below the threshold

Target: T4, GRIP1_3, Q9Y3R0
T4 sequence (Q9Y3R0 247-346, limits assumed, looked up): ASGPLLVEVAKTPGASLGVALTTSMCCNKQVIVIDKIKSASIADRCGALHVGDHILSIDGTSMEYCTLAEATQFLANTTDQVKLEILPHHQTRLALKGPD
Assay: holdup assay
Set-up: key: below the threshold = too weak to quantify, mostly under pKd 3.1 to 4
Settings: plain residues with an end cap or a label only (N-terminal biotin on a linker: ado-ado)

Binder	pKd
GSSSKEGTSV [RRBP1, Q9P2E9]	below the threshold
VGIERETDVL [EZH1, Q92800]	below the threshold
ADRDHASDQL [CTBP1, Q13363]	below the threshold

Target: T5, PARD3B_1, Q8TEW8
T5 sequence (Q8TEW8 196-299, limits assumed, looked up): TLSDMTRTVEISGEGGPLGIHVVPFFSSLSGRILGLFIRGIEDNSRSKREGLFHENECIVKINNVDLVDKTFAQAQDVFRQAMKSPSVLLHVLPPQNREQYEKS
Assay: holdup assay
Set-up: key: below the threshold = too weak to quantify, mostly under pKd 3.1 to 4
Settings: plain residues with an end cap or a label only (N-terminal biotin on a linker: ado-ado)

Binder	pKd
GSSSKEGTSV [RRBP1, Q9P2E9]	below the threshold
VGIERETDVL [EZH1, Q92800]	3.65
ADRDHASDQL [CTBP1, Q13363]	below the threshold

Target: DLG5_1, Q8TDM6
Assay: holdup assay
Set-up: key: below the threshold = too weak to quantify, mostly under pKd 3.1 to 4
Settings: plain residues with an end cap or a label only (N-terminal biotin on a linker: ado-ado)

Chain of DLG5_1, Q8TDM6 (Q8TDM6 617-713): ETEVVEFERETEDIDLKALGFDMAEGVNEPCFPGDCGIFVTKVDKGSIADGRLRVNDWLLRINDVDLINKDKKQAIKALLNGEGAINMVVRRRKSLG

Binder	pKd
GSSSKEGTSV [RRBP1, Q9P2E9]	below the threshold
VGIERETDVL [EZH1, Q92800]	below the threshold
ADRDHASDQL [CTBP1, Q13363]	below the threshold

Target: DLG2_3, Q15700
Assay: holdup assay
Set-up: key: below the threshold = too weak to quantify, mostly under pKd 3.1 to 4
Settings: plain residues with an end cap or a label only (N-terminal biotin on a linker: ado-ado)

Binder	pKd
GSSSKEGTSV [RRBP1, Q9P2E9]	3.9
VGIERETDVL [EZH1, Q92800]	below the threshold
ADRDHASDQL [CTBP1, Q13363]	below the threshold

Target: T6, GRIP1_2, Q9Y3R0
T6 sequence (Q9Y3R0 145-248, limits assumed, looked up): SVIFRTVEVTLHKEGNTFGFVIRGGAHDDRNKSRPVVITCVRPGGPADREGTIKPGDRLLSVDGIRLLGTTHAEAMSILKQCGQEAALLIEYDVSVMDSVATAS
Assay: holdup assay
Set-up: key: below the threshold = too weak to quantify, mostly under pKd 3.1 to 4
Settings: plain residues with an end cap or a label only (N-terminal biotin on a linker: ado-ado)

Binder	pKd
GSSSKEGTSV [RRBP1, Q9P2E9]	below the threshold
VGIERETDVL [EZH1, Q92800]	below the threshold
ADRDHASDQL [CTBP1, Q13363]	below the threshold

Target: MAGI1_2, Q96QZ7
Assay: holdup assay
Set-up: key: below the threshold = too weak to quantify, mostly under pKd 3.1 to 4
Settings: plain residues with an end cap or a label only (N-terminal biotin on a linker: ado-ado)

Chain of MAGI1_2, Q96QZ7 (Q96QZ7 456-580): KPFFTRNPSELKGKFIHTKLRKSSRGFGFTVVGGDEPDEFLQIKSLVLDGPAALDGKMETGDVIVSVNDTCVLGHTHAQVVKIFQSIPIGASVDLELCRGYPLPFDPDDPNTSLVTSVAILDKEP

Binder	pKd
GSSSKEGTSV [RRBP1, Q9P2E9]	3.87
VGIERETDVL [EZH1, Q92800]	below the threshold
ADRDHASDQL [CTBP1, Q13363]	below the threshold

Target: LAP2, Q96RT1
Assay: holdup assay
Set-up: key: below the threshold = too weak to quantify, mostly under pKd 3.1 to 4
Settings: plain residues with an end cap or a label only (N-terminal biotin on a linker: ado-ado)

Chain of LAP2, Q96RT1 (Q96RT1 other isoform, or with tags, fused parts or gaps): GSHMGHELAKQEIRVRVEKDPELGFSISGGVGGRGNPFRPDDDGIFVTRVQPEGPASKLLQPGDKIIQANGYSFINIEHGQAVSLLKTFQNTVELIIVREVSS

Binder	pKd
GSSSKEGTSV [RRBP1, Q9P2E9]	3.65
VGIERETDVL [EZH1, Q92800]	below the threshold
ADRDHASDQL [CTBP1, Q13363]	below the threshold

Target: GOPC, Q9HD26
Assay: holdup assay
Set-up: key: below the threshold = too weak to quantify, mostly under pKd 3.1 to 4
Settings: plain residues with an end cap or a label only (N-terminal biotin on a linker: ado-ado)

Binder	pKd
GSSSKEGTSV [RRBP1, Q9P2E9]	3.62
VGIERETDVL [EZH1, Q92800]	below the threshold
ADRDHASDQL [CTBP1, Q13363]	below the threshold

Target: T7, APBA2_2, Q99767
T7 sequence (Q99767 654-744, limits assumed, looked up): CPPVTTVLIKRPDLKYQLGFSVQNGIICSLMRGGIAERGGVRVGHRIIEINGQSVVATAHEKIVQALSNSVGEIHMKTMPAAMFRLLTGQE
Assay: holdup assay
Set-up: key: below the threshold = too weak to quantify, mostly under pKd 3.1 to 4
Settings: plain residues with an end cap or a label only (N-terminal biotin on a linker: ado-ado)

Binder	pKd
GSSSKEGTSV [RRBP1, Q9P2E9]	below the threshold
VGIERETDVL [EZH1, Q92800]	below the threshold
ADRDHASDQL [CTBP1, Q13363]	below the threshold

Target: T8, APBA1_1, Q02410
T8 sequence (Q02410 651-752, limits assumed, looked up): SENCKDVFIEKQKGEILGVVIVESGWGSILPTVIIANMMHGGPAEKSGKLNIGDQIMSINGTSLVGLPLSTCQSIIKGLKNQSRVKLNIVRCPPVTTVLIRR
Assay: holdup assay
Set-up: key: below the threshold = too weak to quantify, mostly under pKd 3.1 to 4
Settings: plain residues with an end cap or a label only (N-terminal biotin on a linker: ado-ado)

Binder	pKd
GSSSKEGTSV [RRBP1, Q9P2E9]	below the threshold
VGIERETDVL [EZH1, Q92800]	below the threshold
ADRDHASDQL [CTBP1, Q13363]	below the threshold

Target: T9, DLG3_2, Q92796
T9 sequence (Q92796 221-321, limits assumed, looked up): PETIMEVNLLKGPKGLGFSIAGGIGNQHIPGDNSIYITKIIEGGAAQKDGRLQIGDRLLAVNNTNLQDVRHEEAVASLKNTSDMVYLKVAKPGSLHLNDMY
Assay: holdup assay
Set-up: key: below the threshold = too weak to quantify, mostly under pKd 3.1 to 4
Settings: plain residues with an end cap or a label only (N-terminal biotin on a linker: ado-ado)

Binder	pKd
GSSSKEGTSV [RRBP1, Q9P2E9]	3.78
VGIERETDVL [EZH1, Q92800]	3.54
ADRDHASDQL [CTBP1, Q13363]	below the threshold

Target: T10, ARHGEF11, O15085
T10 sequence (O15085 42-136, limits assumed, looked up): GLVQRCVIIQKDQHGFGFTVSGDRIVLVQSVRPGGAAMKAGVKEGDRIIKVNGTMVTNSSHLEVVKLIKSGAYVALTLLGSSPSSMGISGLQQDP
Assay: holdup assay
Set-up: key: below the threshold = too weak to quantify, mostly under pKd 3.1 to 4
Settings: plain residues with an end cap or a label only (N-terminal biotin on a linker: ado-ado)

Binder	pKd
GSSSKEGTSV [RRBP1, Q9P2E9]	3.83
VGIERETDVL [EZH1, Q92800]	below the threshold
ADRDHASDQL [CTBP1, Q13363]	below the threshold

Target: T11, HTRA3, P83110
T11 sequence (P83110 354-453, limits assumed, looked up): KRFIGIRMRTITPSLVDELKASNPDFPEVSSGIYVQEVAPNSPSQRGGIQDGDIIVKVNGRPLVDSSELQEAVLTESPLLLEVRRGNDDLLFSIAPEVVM
Assay: holdup assay
Set-up: key: below the threshold = too weak to quantify, mostly under pKd 3.1 to 4
Settings: plain residues with an end cap or a label only (N-terminal biotin on a linker: ado-ado)

Binder	pKd
GSSSKEGTSV [RRBP1, Q9P2E9]	below the threshold
VGIERETDVL [EZH1, Q92800]	below the threshold
ADRDHASDQL [CTBP1, Q13363]	below the threshold

Target: Inadl_1, Q8NI35
Assay: holdup assay
Set-up: key: below the threshold = too weak to quantify, mostly under pKd 3.1 to 4
Settings: plain residues with an end cap or a label only (N-terminal biotin on a linker: ado-ado)

Chain of Inadl_1, Q8NI35 (Q8NI35 113-229): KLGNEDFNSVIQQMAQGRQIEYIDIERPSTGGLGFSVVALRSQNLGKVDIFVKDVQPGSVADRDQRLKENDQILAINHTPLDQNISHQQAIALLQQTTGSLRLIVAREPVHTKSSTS

Binder	pKd
GSSSKEGTSV [RRBP1, Q9P2E9]	below the threshold
VGIERETDVL [EZH1, Q92800]	below the threshold
ADRDHASDQL [CTBP1, Q13363]	below the threshold

Target: T12, SHANK1, Q9Y566
T12 sequence (Q9Y566 658-767, limits assumed, looked up): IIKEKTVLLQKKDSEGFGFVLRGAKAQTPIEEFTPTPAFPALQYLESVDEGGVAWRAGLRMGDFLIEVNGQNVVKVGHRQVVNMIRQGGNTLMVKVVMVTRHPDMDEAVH
Assay: holdup assay
Set-up: key: below the threshold = too weak to quantify, mostly under pKd 3.1 to 4
Settings: plain residues with an end cap or a label only (N-terminal biotin on a linker: ado-ado)

Binder	pKd
GSSSKEGTSV [RRBP1, Q9P2E9]	below the threshold
VGIERETDVL [EZH1, Q92800]	below the threshold
ADRDHASDQL [CTBP1, Q13363]	below the threshold
